Each block holds one molecule with its values, some of them ahead of it.
How the values were obtained:
DR3-Fc = DR3-Fc (UniProt Q93038); experiment: ELISA
DcR3-Fc = target: T1, DcR3-Fc (UniProt O95407 30-300); experiment: ELISA
T1 sequence (looked up): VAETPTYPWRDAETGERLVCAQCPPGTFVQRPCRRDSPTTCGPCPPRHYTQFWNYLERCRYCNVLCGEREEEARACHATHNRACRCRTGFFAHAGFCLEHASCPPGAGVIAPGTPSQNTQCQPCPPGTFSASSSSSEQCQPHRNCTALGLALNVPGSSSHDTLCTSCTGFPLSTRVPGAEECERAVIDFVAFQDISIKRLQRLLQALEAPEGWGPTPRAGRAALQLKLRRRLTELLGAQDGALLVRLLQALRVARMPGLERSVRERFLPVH

DR3-Fc, sequence (Q93038 25-199): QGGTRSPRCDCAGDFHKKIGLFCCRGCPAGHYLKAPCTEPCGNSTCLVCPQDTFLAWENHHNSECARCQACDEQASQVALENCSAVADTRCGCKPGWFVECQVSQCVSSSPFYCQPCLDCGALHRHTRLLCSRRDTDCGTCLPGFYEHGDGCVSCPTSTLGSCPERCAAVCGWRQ

decrease in binding against wild-type TL1A (DR3-Fc): 50%
Molecule: TL1A-R32A (ligand)

binding result (DcR3-Fc): binds
B1: human TL1A (extracellular domain, recombinant) (ligand, UniProt O95150 57-251, looked up)
chain: SQLRAQGEACVQFQALKGQEFAPSHQQVYAPLRADGDKPRAHLTVVRQTPTQHFKNQFPALHWEHELGLAFTKNRMNYTNKFLLIPESGDYFIYSQVTFRGMTSECSEIRQAGRPNKPDSITVVITKVTDSYPEPTQLLMGTKSVCEVGSNWFQPIYLGAMFSLQEGDKLMVNVSDISLVDYTKEDKTFFGAFLL
modifications: biotin (single-site biotinylated, site not stated) in the competition ELISA

From PMC5973687 (mAbs, 2018)
